{"source": "the supplement of paper PMC10567573", "parents": {"B1": {"name": "FAM189A2 (parent)", "chain": "VAAALRYLQIFATRRSCIDESQIS"}}}
{"variants_of": "B1", "assay": "protein stability index of a GFP-peptide fusion (GPS, HEK-293T) (PSI 1-6); higher = more stable", "details": "c terminus: a fixed tail appended"}
{"variant": "F11H", "protein stability index": 2.04}
{"variant": "F11Y", "protein stability index": 2.36}
{"variant": "F11R", "protein stability index": 2.63}
{"variant": "F11K", "protein stability index": 2.03}
{"variant": "F11C", "protein stability index": 4.31}
{"variant": "F11G", "protein stability index": 1.74}
{"variant": "F11A", "protein stability index": 2.69}
{"variant": "F11W", "protein stability index": 2.83}
{"variant": "F11P", "protein stability index": 2.1}
{"variant": "F11N", "protein stability index": 1.34}
{"variant": "Y7Q", "protein stability index": 2.64}
{"variant": "Y7F", "protein stability index": 3.33}
{"variant": "Y7M", "protein stability index": 2.22}
{"variant": "Y7D", "protein stability index": 1.76}
{"variant": "Y7T", "protein stability index": 2.49}
{"variant": "Y7N", "protein stability index": 1.98}
{"variant": "Y7A", "protein stability index": 1.95}
{"variant": "Y7V", "protein stability index": 2.4}
{"variant": "Y7C", "protein stability index": 2.06}
{"variant": "Y7R", "protein stability index": 1.85}
{"variant": "Y7L", "protein stability index": 2.68}
{"variant": "Y7S", "protein stability index": 2.92}
{"variant": "Y7P", "protein stability index": 2.04}
{"variant": "Y7E", "protein stability index": 2.41}
{"variant": "Y7G", "protein stability index": 2.02}
{"variant": "Y7K", "protein stability index": 1.63}
{"variant": "Y7H", "protein stability index": 2.25}
{"variant": "Y7I", "protein stability index": 1.99}
{"variant": "R6S", "protein stability index": 1.89}
{"variant": "R6Q", "protein stability index": 2.54}
{"variant": "R6C", "protein stability index": 3.52}
{"variant": "R6K", "protein stability index": 1.68}
{"variant": "R6G", "protein stability index": 1.81}
{"variant": "R6I", "protein stability index": 4.08}
{"variant": "R6P", "protein stability index": 2.76}
{"variant": "R6Y", "protein stability index": 2.79}
{"variant": "R6D", "protein stability index": 1.69}
{"variant": "R6H", "protein stability index": 2.98}
{"variant": "R6T", "protein stability index": 2.41}
{"variant": "R6M", "protein stability index": 4.04}
{"variant": "R6N", "protein stability index": 1.23}
{"variant": "R6V", "protein stability index": 2.96}
{"variant": "R6E", "protein stability index": 2.75}
{"variant": "R6L", "protein stability index": 3.52}
{"variant": "L8H", "protein stability index": 2.08}
{"variant": "L8F", "protein stability index": 2.23}
{"variant": "L8N", "protein stability index": 2.14}
{"variant": "L8Q", "protein stability index": 1.6}
{"variant": "L8A", "protein stability index": 2.36}
{"variant": "L8E", "protein stability index": 2.04}
{"variant": "L8P", "protein stability index": 1.68}
{"variant": "L8D", "protein stability index": 2.44}
{"variant": "L8V", "protein stability index": 2.6}
{"variant": "L8K", "protein stability index": 1.89}
{"variant": "L8I", "protein stability index": 1.98}
{"variant": "L8S", "protein stability index": 1.9}
{"variant": "L8C", "protein stability index": 2.81}
{"variant": "L8R", "protein stability index": 1.84}
{"variant": "L8T", "protein stability index": 2.02}
{"variant": "L8G", "protein stability index": 1.34}
{"variant": "L8Y", "protein stability index": 3.39}
{"variant": "L5N", "protein stability index": 1.92}
{"variant": "L5P", "protein stability index": 2.08}
{"variant": "L5W", "protein stability index": 3.03}
{"variant": "L5F", "protein stability index": 2.43}
{"variant": "L5T", "protein stability index": 1.66}
{"variant": "L5D", "protein stability index": 2.36}
{"variant": "L5S", "protein stability index": 1.41}
{"variant": "L5H", "protein stability index": 3.09}
{"variant": "L5C", "protein stability index": 1.18}
{"variant": "L5Y", "protein stability index": 3.26}
{"variant": "L5G", "protein stability index": 2.91}
{"variant": "L5E", "protein stability index": 1.87}
{"variant": "L5V", "protein stability index": 4.11}
{"variant": "L5Q", "protein stability index": 2.12}
{"variant": "L5M", "protein stability index": 1.46}
{"variant": "L5I", "protein stability index": 3.7}
{"variant": "L5K", "protein stability index": 1.48}
{"variant": "L5R", "protein stability index": 2.94}
{"variant": "L5A", "protein stability index": 3.88}
{"variant": "A12F", "protein stability index": 2.03}
{"variant": "A12L", "protein stability index": 2.85}
{"variant": "A12K", "protein stability index": 2.13}
{"variant": "A12D", "protein stability index": 1.97}
{"variant": "A12I", "protein stability index": 3.18}
{"variant": "A12G", "protein stability index": 1.65}
{"variant": "A12C", "protein stability index": 2.17}
{"variant": "A12M", "protein stability index": 2.18}
{"variant": "A12N", "protein stability index": 1.28}
{"variant": "A12H", "protein stability index": 2.87}
{"variant": "Q9K", "protein stability index": 1.7}
{"variant": "Q9N", "protein stability index": 1.81}
{"variant": "Q9D", "protein stability index": 2.94}
{"variant": "Q9I", "protein stability index": 3.15}
{"variant": "Q9P", "protein stability index": 2.14}
{"variant": "Q9C", "protein stability index": 3.59}
{"variant": "Q9A", "protein stability index": 2.72}
{"variant": "Q9M", "protein stability index": 5.39}
{"variant": "Q9V", "protein stability index": 2.85}
{"variant": "Q9W", "protein stability index": 2.67}
{"variant": "Q9L", "protein stability index": 2.47}
{"variant": "Q9T", "protein stability index": 3.26}
{"variant": "Q9R", "protein stability index": 2.24}
{"variant": "Q9E", "protein stability index": 3.07}
{"variant": "A3E", "protein stability index": 2.34}
{"variant": "A3H", "protein stability index": 2.27}
{"variant": "A3T", "protein stability index": 4.19}
{"variant": "A3G", "protein stability index": 2.61}
{"variant": "A3W", "protein stability index": 3.75}
{"variant": "A3F", "protein stability index": 1.83}
{"variant": "A3P", "protein stability index": 1.52}
{"variant": "A3C", "protein stability index": 2.42}
{"variant": "A3Q", "protein stability index": 1.8}
{"variant": "A3Y", "protein stability index": 3}
{"variant": "A3V", "protein stability index": 3.92}
{"variant": "A3N", "protein stability index": 2.98}
{"variant": "A3R", "protein stability index": 1.71}
{"variant": "A3S", "protein stability index": 1.97}
{"variant": "A3I", "protein stability index": 4.72}
{"variant": "I10W", "protein stability index": 2.48}
{"variant": "I10H", "protein stability index": 1.7}
{"variant": "I10P", "protein stability index": 2.77}
{"variant": "I10D", "protein stability index": 2.24}
{"variant": "I10T", "protein stability index": 1.59}
{"variant": "I10G", "protein stability index": 1.87}
{"variant": "I10R", "protein stability index": 2.55}
{"variant": "I10Q", "protein stability index": 2.37}
{"variant": "I10Y", "protein stability index": 2.65}
{"variant": "I10E", "protein stability index": 2.08}
{"variant": "I10V", "protein stability index": 1.69}
{"variant": "I10N", "protein stability index": 2.51}
{"variant": "I10S", "protein stability index": 2.19}
{"variant": "I10M", "protein stability index": 2.68}
{"variant": "I10A", "protein stability index": 1.73}
{"variant": "I10F", "protein stability index": 1.73}
{"variant": "I10C", "protein stability index": 1.72}
{"variant": "I10K", "protein stability index": 2.73}
{"variant": "A4T", "protein stability index": 1.88}
{"variant": "A4S", "protein stability index": 1.88}
{"variant": "A4P", "protein stability index": 3.34}
{"variant": "A4Y", "protein stability index": 2.02}
{"variant": "A4N", "protein stability index": 2.83}
{"variant": "A4G", "protein stability index": 2.23}
{"variant": "A4R", "protein stability index": 2.09}
{"variant": "A4L", "protein stability index": 3.72}
{"variant": "A4H", "protein stability index": 1.89}
{"variant": "A4E", "protein stability index": 1.25}
{"variant": "A4M", "protein stability index": 3.33}
{"variant": "A4D", "protein stability index": 2.19}
{"variant": "A4W", "protein stability index": 2.27}
{"variant": "A4F", "protein stability index": 1.65}
{"variant": "A4I", "protein stability index": 2.64}
{"variant": "A4C", "protein stability index": 2.83}
{"variant": "A4Q", "protein stability index": 2.73}
{"variant": "A2P", "protein stability index": 2.46}
{"variant": "A2W", "protein stability index": 3.06}
{"variant": "A2Y", "protein stability index": 2.15}
{"variant": "A2L", "protein stability index": 2.9}
{"variant": "A2K", "protein stability index": 3.28}
{"variant": "A2G", "protein stability index": 2.53}
{"variant": "A2F", "protein stability index": 1.74}
{"variant": "A2R", "protein stability index": 2}
{"variant": "A2Q", "protein stability index": 2.29}
{"variant": "A2N", "protein stability index": 1.27}
{"variant": "A2E", "protein stability index": 1.89}
{"variant": "A2I", "protein stability index": 4.56}
{"variant": "A2M", "protein stability index": 1.99}
